Measurements: patent US8709811B2, “Materials and methods for synthesis of a flavor and aroma volatile in plants” (University of Florida Research Foundation, Inc., priority 2003, dated 2014)

Columns and labels:
Test in all cases: Alcohol dehydrogenase activity of E. coli expressed His-tagged LePEDH on phenylacetaldehyde and related substrates (Km)
Format in all cases: biochemical, tomato
Conditions in all cases: other: substrate specificity of LePEDH, His tag, E. coli BL21-AI
O=Cc1ccccc1 = test system: O=Cc1ccccc1
Protocol: (§1) The 2-phenylethanol dehydrogenase coding region of the full-length cLET2M9 was cloned in vector pDEST17 with a His tag and transformed into E. coli BL21-AI cells for inducible expression. Alcohol dehydrogenase activities on phenylacetaldehyde and several related substrates were determined.
O=CCc1ccccc1 = test system: O=CCc1ccccc1
Protocol: as §1
O=C/C=C/c1ccccc1 = test system: O=C/C=C/c1ccccc1
Protocol: as §1

Sequence of LePEDH (tomato 2-phenylethanol dehydrogenase, full-length cLET2M9) (Solanum lycopersicum) (chain, as listed by the source): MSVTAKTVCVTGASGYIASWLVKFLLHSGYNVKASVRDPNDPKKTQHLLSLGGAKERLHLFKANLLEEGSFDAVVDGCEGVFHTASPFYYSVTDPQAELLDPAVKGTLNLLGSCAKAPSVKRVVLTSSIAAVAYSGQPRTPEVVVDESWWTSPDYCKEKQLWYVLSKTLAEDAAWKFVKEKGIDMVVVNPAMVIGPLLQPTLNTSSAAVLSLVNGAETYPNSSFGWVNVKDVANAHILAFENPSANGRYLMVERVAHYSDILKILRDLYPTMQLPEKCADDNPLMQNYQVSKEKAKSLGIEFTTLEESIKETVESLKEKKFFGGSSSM

LePEDH (tomato 2-phenylethanol dehydrogenase, full-length cLET2M9) (Solanum lycopersicum)
Km (O=Cc1ccccc1): 240.1 µM
Km (O=CCc1ccccc1): 42.3 µM
Km (O=C/C=C/c1ccccc1): 428.9 µM
